Experimental findings from article PMC13087489 are described below.

In this data set the target is CsERF061 (Citrus sinensis? (blood orange), UniProt A0ACB8LNY5 1-312). In words: EMSA. (In general: Mobility shift assays separate free from complexed probe on a gel.)

B1: RE-mut-probe (dsDNA)
DNA 1: TGTCAAAAAAAAAAGCCACAAGGCAAATTCAAGTTG
DNA 2: CAACTTGAATTTGCCTTGTGGCTTTTTTTTTTGACA
On to B1, for which the binding result is on record as “no binding”.
